This note sets out measurements from US9181296B2, “Stabilized liquid enzyme compositions” (NOVOZYMES A/S, priority 2008, dated 2015).

The assay deals with T1, Protease (Savinase 16.0 LEX) (Lederbergia lenta, UniProt P29600).
T1 construct: purchased Novozymes Savinase 16.0 LEX
T1 sequence (P29600 1-269): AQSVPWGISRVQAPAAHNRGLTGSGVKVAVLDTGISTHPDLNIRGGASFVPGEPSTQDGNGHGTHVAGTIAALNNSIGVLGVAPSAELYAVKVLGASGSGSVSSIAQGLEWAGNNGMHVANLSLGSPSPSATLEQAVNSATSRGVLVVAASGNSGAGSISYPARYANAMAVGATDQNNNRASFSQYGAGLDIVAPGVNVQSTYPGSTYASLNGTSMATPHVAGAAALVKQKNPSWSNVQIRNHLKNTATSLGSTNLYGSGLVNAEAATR
The assay can be described thus: Storage stability of protease in liquid detergent N with stabilizer (Example 3). The format is biochemical. The conditions noted are these: 1 week 40° C. Here is the method:
Peptide aldehydes Z-GAF-H, Z-GAL-H and Z-GAY-H were produced by peptide synthesis, all with a purity >80%. The peptide aldehydes were dissolved in DMSO to a concentration of 10 mg/ml before use.
The following detergent N with enzymes was prepared:
The following detergents with stabilizer according to the invention were prepared and normalized to 100 g of detergent:
The detergents were placed in closed glasses at 40° C. Residual activity of protease was measured (by comparison to a reference stored at −18° C.) after 1 week, using standard enzyme analytical methods (protease measured by hydrolysis of N,N-dimethylcasein at 40° C., pH 8.3).

For Z-GAY-H, the “Molar surplus of inhibitor relative to protease needed to reach the same residual activities as the other peptide aldehydes” value (compared with Z-GAL-H and Z-GAF-H in detergent N) was “approximately half”. In addition, under “detergent N”, the “Efficiency for stabilizing the protease (in words)” value is “most efficient”.
